Experimental data from doi:10.1101/2025.09.11.675134, “Biodistribution-Driven Discovery Identifies a Glycosidase-Cleavable Linker to Reprogram Radiotheranostics” (bioRxiv, 2025).
Where two headings read alike, the source gives them in different places.

Experiments:
[1] = Histopathology (H&E) after two-cycle therapy; format: in vivo, athymic nu/nu mice
Method: To further assess tissue-level toxicity at the conclusion of the two-cycle therapy study, kidneys, livers, spleens, and tumors from representative mice were collected and evaluated histologically using hematoxylin and eosin (H&E) staining. Microscopic pathology was assessed and recorded in the MHL Pathology Database (Zaphod) according to a standardized five-point grading scale (normal, minimal, mild, moderate, marked). Terminology and criteria for pathological findings were consistent with the INHAND (International Harmonization of Nomenclature and Diagnostic Criteria) guidelines developed by the Society of Toxicologic Pathology.
At the conclusion of the two-cycle therapy study, kidneys, livers, spleens, and tumors from representative mice were collected and processed for histological evaluation using hematoxylin and eosin (H&E) staining. Microscopic pathology was assessed and recorded in the MHL Pathology Database (Zaphod) using a standardized five-point ordinal grading system (normal, minimal, mild, moderate, marked). Terminology and diagnostic criteria were consistent with the International Harmonization of Nomenclature and Diagnostic Criteria (INHAND) guidelines established by the Society of Toxicologic Pathology (https://www.toxpath.org/inhand.asp)([57]).

[2] = Ex vivo biodistribution screen of 111In-labeled DOTA-TATE derivatives in normal mice; set-up: species or system athymic nude mice; details: 2 h post-injection; for tissue uptake at 2 h: athymic nude, mouse, iv, 1 ug per mouse, total radioactivity, normal athymic nude mice, mean; for Relative kidney retention, % rel. to DOTA-TATE: normal mice, 111In-DOTA-TATE set as 100%
Method: The panel of 10 compounds were then tested in an initial biodistribution screen of 9 organs assessed in non-tumor-bearing mice at specific timepoints following administration of the radioconjugates. Each agent was initially labeled with ^111In, a long-lived gamma-emitting radioisotope suitable for biodistribution studies, with high radiochemical yields and purity (Fig. S12). The compounds were then dosed (1.55 ± 0.12 MBq; 1 μg per mouse) in healthy athymic nude mice via intravenous (i.v.) injection in phosphate-buffered saline (PBS; vehicle). After 2 hours, the mice were sacrificed and ex vivo biodistribution analysis was performed (Fig. 2). […] This was an expected finding because this variant was designed to bind serum albumin.
Radiolabeling and In Vivo Evaluation of DOTA-TATE Variants:
Biodistribution, PET Quantification, and Dosimetry
Radiolabeling: To perform the initial biodistribution screen, radiolabeling of 10 compounds, including DOTA-TATE, was carried out using 111In (Cardinal Health, Arbutus, MD, USA), an affordable and readily available gamma -emitting radioisotope with a moderate half -life (2.83 days), which affords efficient DOTA radiolabeling and facilitates handling. 111InCl3 (28 – 36 MBq) was diluted with 0.4 M NH 4OAc buffer (pH 5.2) and combined with DOTA -TATE variants (20 μg). The solution was mixed well and then incubated at 90 °C for 30 min.
Radiolabeling efficiency and radiochemical purity were determined by radio -TLC and radio - HPLC. Radiochemical yield was >95% and the material was used without further purification.
The specific activity was 1.55 ± 0.12 TBq/g (41.9 ± 3.2 Ci/g). […]
Radio-instant thin-layer chromatography (radio-iTLC) was performed using silicic acid-impregnated glass microfiber paper strips (iTLC-SA, Varian, Lake Forest, CA, USA) as the stationary phase, and 50 mM EDTA in 100 mM NH4OAc (pH 5.5) as the mobile phase, analyzed with a radio-TLC scanner (AR-2000, Eckert-Ziegler, Wilmington, MA, USA). For Ac-225, equilibration was allowed for at least 12 hours before scanning the TLC strips to confirm initial scans. Radio-HPLC analysis (Agilent 1260 Infinity II, Agilent Technologies Inc., Santa Clara, CA, USA) was conducted on a TSK- Octadecyl-4PW column (5 µm, 4.6 mm ID × 15 cm, Tosoh
Co. Tokyo, Japan) with gradient elution using 0.1% trifluoroacetic acid in water as mobile phase A and 0.1% trifluoroacetic acid in acetonitrile as Mobile phase B. The elution sequence was 0-5 […]
PET imaging and biodistribution: For initial biodistribution screen studies, normal mice were administered 1.4 – 1.8 MBq (1 μg) of 111In-DOTA-TATE variants via tail vein injection and biodistribution studies were conducted at 2 hours post -injection (n = 2 – 4 per cohort).
For studies involving three variants (DOTA -TATE, DOTA-MVK(ε)-TATE, and DOTA-β-Gal-TATE), AR42J cells (5 × 10^6 cells per mouse) were subcutaneously inoculated into the right shoulder of the mice. Tumors were allowed to grow for 3 weeks, reaching a volume of 100 –200 mm³ before being used in subsequent experiments. For biodistribution or PET imaging studies, mice bearing subcutaneous AR42J tumors were administered 1.4 – 1.8 MBq (1 μg) of 111In-labeled DOTA-TATE variants or 2.7 – 4.9 MBq (1 μg) of 86Y-labeled DOTA-TATE variants via tail vein injection. Biodistribution studies with 111In-labeled DOTA -TATE variants were performed 1 hour post -injection (n = 3 per cohort), while studies with 86Y-labeled DOTA-TATE variants were conducted at 1, 4, and 24 hours post -injection (n = 3 per cohort). Mice were euthanized by CO2 asphyxiation, and 10 tissues, including tumors, were collected. All samples were weighed and counted on a gamma counter (2480 Wizard 3, Perkin Elmer Inc., Waltham, MA, USA). Results are presented as percentage of injected activity per gram (%IA/g) and mean values ± standard deviations.
PET imaging to assess the uptake of three 86Y-labeled DOTA-TATE variants (2.7 – 4.9 MBq, 1 […]

[3] = blood, i.v. 1 μg (1.4–1.8 MBq), ex vivo gamma counting, n = 2–4, read-out: Blood uptake
[4] = femur, i.v. 1 μg, ex vivo, n = 2–4, read-out: Femur uptake
[5] = heart, i.v. 1 μg, ex vivo, n = 2–4, read-out: Heart uptake
[6] = intestine, i.v. 1 μg, ex vivo, n = 2–4, read-out: Intestine uptake
[7] = liver, i.v. 1 μg, ex vivo, n = 2–4, read-out: Liver uptake
[8] = lung, i.v. 1 μg, ex vivo, n = 2–4, read-out: Lung uptake
[9] = muscle, i.v. 1 μg, ex vivo, n = 2–4, read-out: Muscle uptake
[10] = spleen, i.v. 1 μg, ex vivo, n = 2–4, read-out: Spleen uptake

SMILES | Glomerulopathy, percentage of mice with grade 0 ([1]; mouse, in vivo) | Glomerulopathy, percentage of mice with grade 1+ ([1]; mouse, in vivo) | Mice with mild, focal hepatocyte injury ([1]; mouse, in vivo) | Tubular damage, percentage of mice with grade 3+ ([1]; mouse, in vivo) | Relative kidney retention, % rel. to DOTA-TATE [2] | tissue uptake at 2 h [2, 3] | tissue uptake at 2 h [2, 4] | tissue uptake at 2 h [2, 5] | tissue uptake at 2 h [2, 6] | tissue uptake at 2 h [2, 7] | tissue uptake at 2 h [2, 8] | tissue uptake at 2 h [2, 9] | tissue uptake at 2 h [2, 10] | also measured
C[C@@H](O)[C@H](NC(=O)[C@@H]1CSSC[C@H](NC(=O)[C@@H](Cc2ccccc2)NC(=O)CN2CCN(CC(=O)O)CCN(CC(=O)O)CCN(CC(=O)O)CC2)C(=O)N[C@@H](Cc2ccc(O)cc2)C(=O)N[C@H](Cc2c[nH]c3ccccc23)C(=O)N[C@@H](CCCCN)C(=O)N[C@@H]([C@@H](C)O)C(=O)N1)C(=O)O [^225Ac-DOTA-TATE, metal not drawn, reference compound] | 17% | 33% | 1 of 6 | 33% | – | – | – | – | – | – | – | – | – | Glomerulopathy, percentage of mice with grade 2+ ([1]; mouse, in vivo): 17%; Glomerulopathy, percentage of mice with grade 3+ ([1]; mouse, in vivo): 33%; Tubular damage, percentage of mice with grade 2+ ([1]; mouse, in vivo): 50%; Tubular damage, percentage of mice with grade 4+ ([1]; mouse, in vivo): 17%
C[C@@H](O)[C@H](NC(=O)[C@@H]1CSSC[C@H](NC(=O)[C@@H](Cc2ccccc2)NC(=O)CCCC(=O)Nc2cc(COC(=O)N(C)CCNC(=O)CN3CCN(CC(=O)O)CCN(CC(=O)O)CCN(CC(=O)O)CC3)ccc2O[C@@H]2O[C@H](CO)[C@H](O)[C@H](O)[C@H]2O)C(=O)N[C@@H](Cc2ccc(O)cc2)C(=O)N[C@H](Cc2c[nH]c3ccccc23)C(=O)N[C@@H](CCCCN)C(=O)N[C@@H]([C@@H](C)O)C(=O)N1)C(=O)O [^111In-DOTA-β-Gal-TATE, metal not drawn] | – | – | – | – | 67% | – | – | – | – | – | – | – | – | tissue uptake at 2 h ([2]; in vivo, i.v. 1 μg (1.4–1.8 MBq), ex vivo gamma counting, n = 2–4, read-out: Blood uptake): 0.04 %ID/g; tissue uptake at 2 h ([2]; in vivo, i.v. 1 μg, ex vivo, n = 2–4, read-out: Femur uptake): 0.07 %ID/g; tissue uptake at 2 h ([2]; in vivo, i.v. 1 μg, ex vivo, n = 2–4, read-out: Heart uptake): 0.03 %ID/g; tissue uptake at 2 h ([2]; in vivo, i.v. 1 μg, ex vivo, n = 2–4, read-out: Intestine uptake): 0.49 %ID/g; tissue uptake at 2 h ([2]; in vivo, i.v. 1 μg, ex vivo, n = 2–4, read-out: Liver uptake): 0.11 %ID/g; tissue uptake at 2 h ([2]; in vivo, i.v. 1 μg, ex vivo, n = 2–4, read-out: Lung uptake): 0.28 %ID/g; tissue uptake at 2 h ([2]; in vivo, i.v. 1 μg, ex vivo, n = 2–4, read-out: Muscle uptake): 0.02 %ID/g; tissue uptake at 2 h ([2]; in vivo, i.v. 1 μg, ex vivo, n = 2–4, read-out: Spleen uptake): 0.08 %ID/g
C[C@@H](O)[C@H](NC(=O)[C@@H]1CSSC[C@H](NC(=O)[C@@H](Cc2ccccc2)NC(=O)CN2CCN(CC(=O)O)CCN(CC(=O)O)CCN(CC(=O)O)CC2)C(=O)N[C@@H](Cc2ccc(O)cc2)C(=O)N[C@H](Cc2c[nH]c3ccccc23)C(=O)N[C@@H](CCCCN)C(=O)N[C@@H]([C@@H](C)O)C(=O)N1)C(=O)O [^111In-DOTA-TATE, metal not drawn, reference compound] | – | – | – | – | – | 0.04 %ID/g | 0.05 %ID/g | 0.03 %ID/g | 0.51 %ID/g | 0.09 %ID/g | 0.18 %ID/g | 0.01 %ID/g | 0.06 %ID/g | –
CSCC[C@H](NC(=O)CN1CCN(CC(=O)O)CCN(CC(=O)O)CCN(CC(=O)O)CC1)C(=O)N[C@H](C(=O)N[C@@H](CCCCNC(=O)CCCC(=O)N[C@H](Cc1ccccc1)C(=O)N[C@H]1CSSC[C@@H](C(=O)N[C@H](C(=O)O)[C@@H](C)O)NC(=O)[C@H]([C@@H](C)O)NC(=O)[C@H](CCCCN)NC(=O)[C@@H](Cc2c[nH]c3ccccc23)NC(=O)[C@H](Cc2ccc(O)cc2)NC1=O)C(=O)O)C(C)C [^111In-DOTA-MVK(ε)-TATE, metal not drawn] | – | – | – | – | 67% | 0.15 %ID/g | 0.31 %ID/g | 0.11 %ID/g | 0.83 %ID/g | 0.16 %ID/g | 0.33 %ID/g | 0.06 %ID/g | 0.12 %ID/g | –
C[C@@H](O)[C@H](NC(=O)[C@@H]1CSSC[C@H](NC(=O)[C@@H](Cc2ccccc2)NC(=O)CCCC(=O)Nc2cc(COC(=O)N(C)CCNC(=O)CN3CCN(CC(=O)O)CCN(CC(=O)O)CCN(CC(=O)O)CC3)ccc2O[C@@H]2O[C@H](CO)[C@H](O)[C@H](O)[C@H]2O)C(=O)N[C@@H](Cc2ccc(O)cc2)C(=O)N[C@H](Cc2c[nH]c3ccccc23)C(=O)N[C@@H](CCCCN)C(=O)N[C@@H]([C@@H](C)O)C(=O)N1)C(=O)O [^225Ac-DOTA-β-Gal-TATE, metal not drawn] | – | – | – | – | – | – | – | – | – | – | – | – | – | Tubular damage, percentage of mice with grade 0 ([1]; kidney H&E after two-cycle regimen, 0–4+ scale (normal, minimal, mild, moderate, marked), n = 6): 100%; Glomerulopathy, percentage of mice with grade 0 ([1]; kidney H&E after two-cycle regimen, 0–4+ scale, n = 6): 67%
CSCC[C@H](NC(=O)CN1CCN(CC(=O)O)CCN(CC(=O)O)CCN(CC(=O)O)CC1)C(=O)N[C@H](C(=O)N[C@@H](CCCCNC(=O)CCCC(=O)N[C@H](Cc1ccccc1)C(=O)N[C@H]1CSSC[C@@H](C(=O)N[C@H](C(=O)O)[C@@H](C)O)NC(=O)[C@H]([C@@H](C)O)NC(=O)[C@H](CCCCN)NC(=O)[C@@H](Cc2c[nH]c3ccccc23)NC(=O)[C@H](Cc2ccc(O)cc2)NC1=O)C(=O)O)C(C)C [^225Ac-DOTA-MVK(ε)-TATE, metal not drawn] | 50% | 50% | 1 of 6 | 17% | – | – | – | – | – | – | – | – | – | Tubular damage, percentage of mice with grade 0 ([1]; mouse, in vivo): 67%; Tubular damage, percentage of mice with grade 1+ ([1]; mouse, in vivo): 17%
